Laboratory results from publication PMC3683571 (2013).
Where no end group is shown, it is not given here.

Biological target: PSMA (Homo sapiens, UniProt Q04609)
Experiment: electrochemical impedance spectroscopy

B1: phage-2 (phage-displayed peptide 2) (peptide)
chain: SECVEVFQNSCDW
modifications: cysteine pairing not given here; also: displayed on M13 phage
Kd: 54 nM
